Results on 2 molecules are retold here after paper PMC6180346, “Two Faces of CwlM, an Essential PknB Substrate, in Mycobacterium tuberculosis” (Cell Reports, 2018).

Holding throughout (test): co-IP; recombinant CwlM (PknB-phosphorylated or non-phosphorylated) and the other recombinant protein, 10 μg each, in 20 mM KH2PO4 pH 7.0, 100 mM NaCl, 10 mM KCl, with anti-CwlM-IgG-Sepharose; bound and unbound on SDS-PAGE, Coomassie; densitometry as percent of the total amount used
In assay [1] the target is Recombinant 6xHis-tagged CwlM, non-phosphorylated (M. tuberculosis) (UniProt L7N653).
The target in assay [2] is Recombinant 6xHis-tagged CwlM, PknB-phosphorylated (M. tuberculosis) (UniProt L7N653).
Assay [3] deals with T1, Recombinant 6xHis-tagged CwlM, non-phosphorylated (M. tuberculosis, UniProt L7N653 1-406).
T1 construct: also called non-phosphorylated recombinant CwlM; non-phosphorylated CwlM
T1 sequence: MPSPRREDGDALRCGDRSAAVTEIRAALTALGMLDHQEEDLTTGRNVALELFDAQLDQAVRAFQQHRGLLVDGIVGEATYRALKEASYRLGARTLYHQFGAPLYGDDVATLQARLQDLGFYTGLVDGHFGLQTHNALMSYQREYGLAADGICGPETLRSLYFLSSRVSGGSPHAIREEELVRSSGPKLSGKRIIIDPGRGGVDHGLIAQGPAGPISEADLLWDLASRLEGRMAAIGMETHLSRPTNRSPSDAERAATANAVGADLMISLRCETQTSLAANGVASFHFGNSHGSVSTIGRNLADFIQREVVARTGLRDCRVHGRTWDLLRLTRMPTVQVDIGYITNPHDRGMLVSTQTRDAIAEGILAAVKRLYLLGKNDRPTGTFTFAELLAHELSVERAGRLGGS
The conditions noted are these: both partners purified.

Take “Recombinant 6XHis-tagged MurJ ICD (domain or fragment)”: the percent co-precipitated in assay [1] is 85%; in assay [2], 12%.

B1: Recombinant 6xHis-tagged 6xHis-MurJ_(E541-F680) (domain or fragment)
chain: EARAALDAVRARIRSRRLKTGPQTQNVLDQSSRPGPVTYPERRRLAPPRGKSVVHEPIRRRPPEQVARAGRAKGPEVIDRPSENASFGAASGAELPRPVADELQLDAPAGRDPGPVSRPHPSDLQNGDLPADAARGPIAF
notes: The N-terminal end of the tag is read from the printed name 6xHis-MurJ_(E541-F680); also called MurJ linker; linker region (E541-F680)
Take B1: the binding result in assay [3] was “binds”.
